In experiment [1] the target is T1, human CLDN18.2 (NP_001002026.1) (human, UniProt P56856-2 1-261).
T1 construct: whole, on cells; KATO III cells also served as target cells in the ADCC assay; also called Claudin18.2; Claudin-18 splice variant 2
As to the kind of experiment: FACS on BAF3-CLDN18.2 cells, FITC fluorescence; item G7; blank without antibody (H7) MFI 178.

Experiment [2] deals with T1, human CLDN18.2 (NP_001002026.1). As to the kind of experiment: FACS on BAF3-CLDN18.2 cells, FITC fluorescence; item F7; blank without antibody (H7) MFI 178.
The target of experiment [3] is human CLDN18.1 (Uniprot No:P56856) (human) (UniProt P56856). As to the kind of experiment: FACS on BAF3-CLDN18.1 cells, FITC fluorescence; item B1; blank without antibody (C1) MFI 242.
Experiment [4] has the same target. In words: FACS on BAF3-CLDN18.1 cells, FITC fluorescence; item A1; blank without antibody (C1) MFI 242.
The target in experiment [5] is T1, human CLDN18.2 (NP_001002026.1). As to the kind of experiment: FACS on 293T-CLDN18.2 cells, PE fluorescence; item A4; blank without antibody (E4) MFI 21.8.
The target is the same in experiment [6]. As to the kind of experiment: FACS on 293T-CLDN18.2 cells, PE fluorescence; item D4; blank without antibody (E4) MFI 21.8.
For experiment [7] the target is unchanged. In words: FACS on 293T-CLDN18.2 cells, PE fluorescence; item B4; blank without antibody (E4) MFI 21.8.
Experiment [8] shares this target. In words: cell-based binding FACS on BAF3-CLDN18.2 cells, MFI against Con of mAb (nM).
Procedure: (§1) The BAF3-CLDN18.2, BAF3-CLDN18.1 and BAF3 cells were harvested, washed twice and re-suspended in phosphate buffered saline (PBS) containing 2% v/v Fetal Bovine Serum (FACS buffer), BAF3 cells were used here as blank control. The cells, 1×10⁵ per well, were incubated in 96 well-plates with 100 μl serially diluted antibodies or controls (starting from 10 μg/mL, 5-fold serial dilution) in FACS buffer for 50 minutes on ice. […] Following an incubation of 50 minutes at 4° C. in dark, cells were washed three times and re-suspended in FACS buffer. Fluorescence was measured using a Becton Dickinson FACS Canto II-HTS equipment, and the MFI (mean fluorescence intensity) was plotted against antibody concentration. Data was analyzed using Graphpad Prism and EC₅₀ values were reported.
For experiment [9] the target is unchanged. As to the kind of experiment: cell-based binding FACS on BAF3-CLDN18.2 cells; y axis unlabelled, nM is the unit of the x axis; the curve reaches only about 800 at the last point.
Procedure: as §1
Experiment [10] has the same target. In words: cell-based binding FACS on BAF3-CLDN18.2 cells, MFI against Con of mAb, nM is the unit of the x axis; low curve (open down-triangles) reaching only MFI about 400-500.
Procedure: as §1
Experiment [11] shares this target. As to the kind of experiment: cell-based blocking FACS on BAF3-CLDN18.2 cells; unlabeled Zolbetuximab against biotin labeled Zolbetuximab, SA-PE detection, nM is the unit of the x axis; signal falls only from about 870 to about 600 at the last point, no lower plateau is reached.
Procedure: The anti-CLDN18.2 antibodies of the disclosure, and the controls were diluted with FACS buffer starting from 10 μg/mL with 5-fold serial dilution. BAF3-CLDN18.2 cells were harvested from cell culture flasks at the log phase, washed twice and re-suspended in PBS containing 2% v/v Fetal Bovine Serum (FACS buffer). […] Then the cells were washed twice with FACS buffer, added with 100 μl/well SA-PE (1:200 dilution in FACS buffer, Cat #:016-110-084, Jackson Immunoresearch), and incubated for 40 minutes at 4° C. in dark. Cells were washed twice and re-suspended in FACS buffer. Fluorescence was measured using a Becton Dickinson FACS Canto II-HTS equipment. Data was analyzed using Graphpad Prism and IC₅₀ values were reported.
The target is the same in experiment [12]. As to the kind of experiment: cell-based binding FACS on BAF3-CLDN18.2 cells, MFI against Con of mAb, nM is the unit of the x axis; low curve reaching only MFI about 300-400 at the last point.
Procedure: as §1
Experiment [13] shares this target. In words: cell-based binding FACS on BAF3-CLDN18.2 cells, MFI against Con of mAb, nM is the unit of the x axis; the curve levels off near MFI 600.
Procedure: as §1
Experiment [14] has the same target. As to the kind of experiment: cell-based binding FACS on BAF3-CLDN18.2 cells; y axis unlabelled, nM is the unit of the x axis; the three chimeric curves run close together and reach about 7200-7700 at the last point without a clear plateau.
Procedure: as §1
Experiment [15] shares this target. In words: cell-based binding FACS on BAF3-CLDN18.2 cells, MFI against Con of mAb, nM is the unit of the x axis; curve lies in a bundle of overlapping curves reaching MFI about 5000-6000.
Procedure: as §1

This is an account of results in patent publication US20250136678A1 (BIOSION, published 2025).

Substitutions are numbered along the chain they refer to.

As for “anti-CLDN18 antibody (Cat #ab203563, Abeam)”, the MFI at 500 ng/ml worked out at 3020 in experiment [1] and 4020 in experiment [3]. In addition, the MFI at 1000 ng/ml in experiment [2] is 3340; in [4], 5340.

Turning to hIgG (antibody), in [5], the MFI at 10000 ng/ml is 26.9. The molecule further returned an MFI at 156.25 ng/ml in experiment [6] of 21.4. For the same molecule, the MFI at 2500 ng/ml in experiment [7] was 28.7.

B1: huE1B1B8C7-V8 (antibody, human IgG1, kappa, V domains shown)
VH: QVQLVQSGAEVKKPGASVKVSCKASGYSFTNYWVNWVRQAPGQGLEWIGMVHPSGSETRLNQQFKDKATLTRDTSTSTVYMELSSLRSEDTAVYYCARVWSGNAFDYWGQGTLVTVSS
VL: DIVMTQSPDSLAVSLGERATINCLSSQSLLASGNQRNYLTWYQQKPGQPPKLLIYWASTRDSGVPDRFTGSGSGVDFTLTISSVQAEDVAVYYCQNGFSFPFTFGQGTKLEIKR
notes: Humanized, human IgG1/kappa; X positions as numbered in CLM-00003 and CLM-00004
Take B1: the binding result in experiment [8] is on record as “binds”.

B2: Zolbetuximab (antibody, human IgG1, kappa, V domains shown)
VH: QVQLQQPGAELVRPGASVKLSCKASGYTFTSYWINWVKQRPGQGLEWIGNIYPSDSYTNYNQKFKDKATLTVDKSSSTAYMQLSSPTSEDSAVYYCTRSWRGNSFDYWGQGTTLTVSS
VL: DIVMTQSPSSLTVTAGEKVTMSCKSSQSLLNSGNQKNYLTWYQQKPGQPPKLLIYWASTRESGVPDRFTGSGSGTDFTLTISSVQAEDLAVYYCQNDYSYPFTFGSGTKLEIKR
notes: also called IMAB362; Benchmark
Take B2: the half-maximal effective concentration (EC50) worked out at 11 nM in experiment [9], 4.67 nM in experiment [10], 5.48 nM in experiment [12] and 2.44 nM in experiment [13]. This molecule returned a concentration for half-maximal inhibition (IC50) in experiment [11] of 17.3 nM.

B3: chE1B1B8C7-V2 (antibody, human IgG1, kappa, V domains shown)
VH: QVQLQQPGAELVRPGTSVKLSCKASGYSFTNYWVNWVKQRPGQGLEWIGMVHPSGSETRLNQQFKDKATLTVDKSSNTAYMQLNRPTSEDSAVYYCARVWSGNAFDYWGQGTTLIVSS
VL: DIVMTQSPSSLTVTAGEKVTLNCLSSQSLLNAGNQRNYLTWYQQKPGQPPKLLIYWASTRDSGVPDRFTGGGSGVDFTLTIYRVQAEDLAFYYCQNGFSFPFTFGSGTKLEMKR
notes: Chimeric human IgG1/kappa; also called chimeric antibody chE1B1B8C7-V2
As for B3, the EC50 in experiment [14] came to 3.91 nM.

B4: chE1B1B8C7-V3 (antibody, human IgG1, kappa, V domains shown)
VH: B3 VH
VL: B3 VL with A32E
notes: Chimeric human IgG1/kappa; also called chimeric antibody chE1B1B8C7-V3
In the case of B4, in experiment [14], the half-maximal effective concentration (EC50) is 7.79 nM.

B5: chE1B1B8C7-V1 (antibody, human IgG1, kappa, V domains shown)
VH: B3 VH
VL: B3 VL with N31A, A32S
notes: Chimeric human IgG1/kappa; also called chimeric antibody chE1B1B8C7-V1
Take B5: the concentration for a half-maximal effect (EC50) in [14] was determined as 6.19 nM; in experiment [15] it was 3.08 nM.
